Laboratory results from publication PMC7817217 (2020).

Target: SARS-CoV-2 spike protein receptor binding domain (RBD) (SARS-CoV-2, UniProt P0DTC2 319-541)
Assay: SPR

B1: bACE2-Rm residues 19 to 615 fused to the mouse Fc tag (bACE2-Rm-mFc) (Fc fusion)
chain: STTEDEAKKFLDKFNSKAEDLSYESSLASWDYNTNISDENVQKMDEAGAKWSAFYEEQSKLAKNYPLEEIQNDTVKRQLQILQQSGSPVLSEDKSKRLNSILNAMSTIYSTGKVCKPNNPQECLLLEPGLDNIMGTSKDYNERLWAWEGWRAEVGKQLRPLYEEYVVLKNEMARGYHYEDYGDYWRRDYETEESSGPGYSRDQLMKDVDRIFTEIKPLYEHLHAYVRAKLMDTYPLHISPTGCLPAHLLGDMWGRFWTNLYPLTVPFGQKPNIDVTDAMLNQGWDANRIFKEAEKFFVSVSLPKMTEGFWNKSMLTEPGDGRKVVCHPTAWDLGKGDFRIKMCTKVTMEDFLTAHHEMGHIQYDMAYASQPYLLRNGANEGFHEAVGEVMSLSVATPKHLKTMGLLSPDFREDDETEINFLLKQALNIVGTLPFTYMLEKWRWMVFKGEIPKEEWMKKWWEMKREIVGVVEPVPHDETYCDPASLFHVANDYSFIRYYTRTIFEFQFHEALCRIAQHNGPLHKCDISNSTDAGKKLHQMLSVGKSQAWTKTLEDIVDSRNMDVGPLLRYFKPLYTWLQEQNRKSYVGWNTDWSPYAD
With B1 the Kd was 500 nM.
